In the RNAGym collection of RNA variant scans (doi:10.1101/gr.219683.116):

B1: mRNA-splicing (parent)
chain: AGUUGCUGCUGGGAGCUCCAGCACAGUGAAAUGGACAGAAGGGCAGAGCAA

Variants of: B1
Assay: exon inclusion enrichment index; higher = more inclusion; WT1 exon 5 minigene, HEK293

Variant | exon inclusion enrichment index
G5C C6G U7C U10C U17C C18G | 4.56
G5C C6U G8A U10C | 1.18
G5C C6U G8A U10A | 0.0597
G5C C6U G8C C9U U10C A25U G26U | 1.7
G5C C6U G8C C9U U10C A25U G26C | 2.38
G5C C6U G8C C9U U10C A25U G26A | 2.23
G5C C6G U7C U10C G33U G34A | 0.696
G5C C6G U7C U10C G33U G34C | 1.15
G5C C6G U7C U10C G33U G34U | 0.875
G5C C6U G8C C9U U10C A29G | 2.54
G5C C6U G8C C9U U10C A29C | 1.75
G5C C6U G8C C9U U10C A29U | 0.63
G5C C6U G8C C9U U10A G11U | 0.953
G5C C6U G8C C9U U10A G11C | 1.84
G5C C6U G8C C9U U10A G11A | 0.661
G5C C6G U7C U10C G42U | 4.02
G5C C6G U7C U10C G42A | 4.32
G5C C6G U7C U10C G42C | 4.75
G5C C6G U7C U10C G41C | 4.53
G5C C6G U7C U10C G41A | 2.7
G5C C6G U7C U10C G41U | 3.2
G5C C6G U7C U10C U17A C18G | 4.2
G5C C6G U7C U10C U17A C18A | 2.9
G5C C6G U7C U10C U17A C18U | 3.37

Variant | exon inclusion enrichment index
G5C C6U G8C C9U U10C A35C C36U | 0.258
G5C C6U G8C C9U U10C A35C C36G | 1.57
G5C C6U G8C C9U U10C A35C C36A | 1.37
G5C C6U G8C C9U U10C A20U | 2.17
G5C C6U G8C C9U U10C A20G | 2.69
G5C C6U G8C C9U U10C A20C | 1.41
G5C C6G U7C U10C U17A | 3.8
G5C C6G U7C U10C U17C | 3.43
G5C C6G U7C U10C U17G | 1.86
G5C C6G U7C U10C G21C C22U | 3.43
G5C C6G U7C U10C G21C C22G | 4.61
G5C C6G U7C U10C G21C C22A | 3.02
G5C C6G U7C U10C G21U C22A | 1.73
G5C C6G U7C U10C G21U C22G | 3.57
G5C C6G U7C U10C G21U C22U | 1.36
G5C C6G U7C U10C G15U | 3.45
G5C C6G U7C U10C G15A | 2.71
G5C C6G U7C U10C G15C | 3.44
G5C C6U G8C C9U U10C A31C | 2.29
G5C C6U G8C C9U U10C A31U | 1.74
G5C C6U G8C C9U U10C A31G | 2.47
G5C C6G U10C | 2.11
G5C C6U G8C C9U U10C A37C G38C | 1.95
G5C C6U G8C C9U U10C A37C G38U | 1.2

Variant | exon inclusion enrichment index
G5C C6U G8C C9U U10C A37C G38A | 1.63
G5C C6U G8C C9U U10C A29U A30U | 0.629
G5C C6U G8C C9U U10C A29U A30G | 2.16
G5C C6U G8C C9U U10C A29U A30C | 1.51
G5C C6G U7C U10C G28U A29C | 2.89
G5C C6G U7C U10C G28U A29G | 3.24
G5C C6G U7C U10C G28U A29U | 1.08
G5C C6G U7C U10C U32G G33U | 1.88
G5C C6G U7C U10C U32G G33C | 3.31
G5C C6G U7C U10C U32G G33A | 1.79
G5C C6G U7C U10C G41C G42C | 4.35
G5C C6G U7C U10C G41C G42U | 4.21
G5C C6G U7C U10C G41C G42A | 3
G5C C6G U7C U10C G43U C44U | 1.4
G5C C6G U7C U10C G43U C44A | 0.0721
G5C C6G U7C U10C G43U C44G | 0.713
G5C C6G U7C U10C G26A U27A | 3.45
G5C C6G U7C U10C G26A U27G | 3.56
G5C C6G U7C U10C G26A U27C | 4.94
G5C C6U G8A C9A U10C | 0.564
G5C C6G U7C U10C G38C A39C | 2.86
G5C C6G U7C U10C G38C A39G | 2.71
G5C C6G U7C U10C G38C A39U | 0.532
G5C C6U C9G U10C | 1.31

Variant | exon inclusion enrichment index
G5C C6U G8C C9U U10C A39C A40U | 1.13
G5C C6U G8C C9U U10C A39C A40C | 2.43
G5C C6U G8C C9U U10C A39C A40G | 2.03
G5C C6G U7C U10C G28U | 1.05
G5C C6G U7C U10C G28A | 1.63
G5C C6G U7C U10C G28C | 2.68
G5C C6U G8C C9U U10C A14C G15U | 0.523
G5C C6U G8C C9U U10C A14C G15C | 0.406
G5C C6U G8C C9U U10C A14C G15A | 0.459
G5C C6U G8C C9U U10C A23C C24G | 3.11
G5C C6U G8C C9U U10C A23C C24A | 2.31
G5C C6U G8C C9U U10C A23C C24U | 0.867
G5C C6U G8C C9A U10C | 2.36
G5C C6U G8C C9A U10A | 1.21
G5C C6U G8C C9A U10G | 0.812
G5C C6G U7C U10C G28C A29U | 2.35
G5C C6G U7C U10C G28C A29G | 4.75
G5C C6G U7C U10C G28C A29C | 2.81
G5C C6G U7C U10C G34A A35G | 2.26
G5C C6G U7C U10C G34A A35C | 2.92
G5C C6G U7C U10C G34A A35U | 1.96
G5C C6G U7C U10C G43A C44U | 3.64
G5C C6G U7C U10C G43A C44G | 4.94
G5C C6G U7C U10C G43A C44A | 4.31

Variant | exon inclusion enrichment index
G5C C6U G8C C9U U10C A35U C36G | 0.181
G5C C6U G8C C9U U10C A35U C36A | 0.00287
G5C C6U G8C C9U U10C A35U C36U | 0.0294
G5C C6U G8C C9U U10C A23C | 1.9
G5C C6U G8C C9U U10C A23G | 2.93
G5C C6U G8C C9U U10C A23U | 1.39
G5C C6G U7C U10C G21A | 2.93
G5C C6G U7C U10C G21U | 2.48
G5C C6G U7C U10C G21C | 3.41
G5C C6G U7C U10C G41A G42U | 2.89
G5C C6G U7C U10C G41A G42C | 3.88
G5C C6G U7C U10C G41A G42A | 2.54
G5C C6G U7C U10C G38A A39U | 0.365
G5C C6G U7C U10C G38A A39C | 2.65
G5C C6G U7C U10C G38A A39G | 2.72
G5C C6G U7C U10C G46A A47C | 3.6
G5C C6G U7C U10C G46A A47U | 3.68
G5C C6G U7C U10C G46A A47G | 1.33
G5C C6G U7C U10C G41U G42C | 3.95
G5C C6G U7C U10C G41U G42U | 2.79
G5C C6G U7C U10C G41U G42A | 1.45
G5C C6G U7C U10C G46C A47C | 2.58
G5C C6G U7C U10C G46C A47G | 3.52
G5C C6G U7C U10C G46C A47U | 2.37

Variant | exon inclusion enrichment index
G5C C6U | 0.0627
G5C C6G U7C U10G G11C | 2.32
G5C C6G U7C U10G G11U | 2.66
G5C C6G U7C U10G G11A | 2.98
G5C C6G U7C U10C G21A C22A | 1.7
G5C C6G U7C U10C G21A C22U | 1.87
G5C C6G U7C U10C G21A C22G | 3.81
G5C C6G U7C U10C G33A G34U | 0.979
G5C C6G U7C U10C G33A G34C | 0.988
G5C C6G U7C U10C G33A G34A | 0.795
G5C C6U G8C C9U U10C A31G U32C | 3.89
G5C C6U G8C C9U U10C A31G U32A | 3.83
G5C C6U G8C C9U U10C A31G U32G | 1.04
G5C C6U G8C C9U U10C A37U G38C | 1.03
G5C C6U G8C C9U U10C A37U G38U | 0.446
G5C C6U G8C C9U U10C A37U G38A | 0.713
G5C C6G U7C U10C U27A G28A | 3.01
G5C C6G U7C U10C U27A G28U | 1.9
G5C C6G U7C U10C U27A G28C | 3.86
G5C C6G U7C U10C G26U | 3.19
G5C C6G U7C U10C G26C | 3.97
G5C C6G U7C U10C G26A | 4.41
G5C C6U G8C C9U U10C A25G | 3.66
G5C C6U G8C C9U U10C A25C | 3.42

Variant | exon inclusion enrichment index
G5C C6U G8C C9U U10C A25U | 2.6
G5C C6G U7C U10C G13U | 0.534
G5C C6G U7C U10C G13C | 1.53
G5C C6U G8C C9U U10C A39G | 0.96
G5C C6U G8C C9U U10C A39C | 0.436
G5C C6G U7C U10C G38U A39G | 2.02
G5C C6G U7C U10C G38U A39C | 3.03
G5C C6G U7C U10C G38U A39U | 0.22
G5C C6U G8C C9U U10C A37U | 1.73
G5C C6U G8C C9U U10C A37G | 2.83
G5C C6U G8C C9U U10C A37C | 3.08
G5C C6U G8C C9U U10C A23G C24A | 3.38
G5C C6U G8C C9U U10C A23G C24G | 3.51
G5C C6U G8C C9U U10C A23G C24U | 0.696
G5C C6U G8C C9U U10C A31U U32C | 2.61
G5C C6U G8C C9U U10C A31U U32A | 0.179
G5C C6U G8C C9U U10C A31U U32G | 1.04
G5C C6U G8C C9U U10C A14C | 1.3
G5C C6U G8C C9U U10C A14U | 0.661
G5C C6U G8C C9U U10C A14G | 1.2
G5C C6G U7C U10C U32C G33A | 2.09
G5C C6G U7C U10C U32C G33C | 3.68
G5C C6G U7C U10C U32C G33U | 2.45
